Assay [1] addresses GFP-Dzip1 (full-length mouse Dzip1) (mouse) (UniProt Q8BMD2). The experiment in a line: co-IP; both partners co-expressed with tags in HEK 293T cells (some in G0 phase; some treated with the GSK3 inhibitors BIO or CHIR99021, the CK1 inhibitor D4476 or the CK2 inhibitor CX4945); IP of the GFP-, CFP/YFP-tagged partner; IP buffer 0.1% NP-40, 50 mM HEPES pH 7.00, 125 mM NaCl, 4°C.
The target in assay [2] is GFP-Rab8^T22N (UniProt P61006). Described as above.
In assay [3] the target is CFP-RBD-YFP (Rab8-binding domain of Rabin8 between CFP and YFP) (human).
The target is the same in assay [4]. The source holds these as a separate data set.

Chain of UniProt P61006 (P61006 whole entry T22N, the tested form may be a part): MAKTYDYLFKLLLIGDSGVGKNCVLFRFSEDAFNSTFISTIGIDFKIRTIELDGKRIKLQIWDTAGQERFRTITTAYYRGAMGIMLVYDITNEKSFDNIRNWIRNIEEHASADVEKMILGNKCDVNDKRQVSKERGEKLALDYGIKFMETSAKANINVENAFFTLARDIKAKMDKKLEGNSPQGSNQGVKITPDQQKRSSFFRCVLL

In assay [1], “Flag-Rab8^T22N (from UniProt P61006 1-207) (natural protein)” had a fold co-immunoprecipitated against Rab8^Q67L of 3.5 fold.

As for “Myc-Dzip1 (from UniProt Q8BMD2 1-852) (natural protein)”, in assay [2], the fold co-immunoprecipitated against wild-type Rab8 is 5 fold.

As to “endogenous Rab8 of NIH 3T3 cells (from UniProt P55258 1-207) (natural protein)”, in assay [3], the FE^CFP after YFP photo-bleaching (AB-FRET of the reporter CFP-RBD-YFP) around the cilium base, G0-phase NIH 3T3 RNAi control cells was determined as 9.3%. Moreover, in assay [4], the FE^CFP after YFP photo-bleaching (AB-FRET of the reporter CFP-RBD-YFP) at the basal body, G0-phase NIH 3T3 cells treated with the GSK3 inhibitor BIO is 3.3%; the FE^CFP after YFP photo-bleaching (AB-FRET of the reporter CFP-RBD-YFP) at the basal body, G0-phase NIH 3T3 cells treated with the GSK3 inhibitor CHIR99021 stood at 2.6%; the FE^CFP after YFP photo-bleaching (AB-FRET of the reporter CFP-RBD-YFP) at the basal body, G0-phase NIH 3T3 cells, untreated control amounted to 4.8%.

These data come from PMC4393111.
